According to patent US20180072811A1 (GENERAL HOSPITAL, published 2018):

Target: T1, chondroitin sulfate proteoglycan 4 (CSPG4), human (human, UniProt Q6UVK1 30-2322)
T1 construct: whole, on cells; Cell surface proteoglycan; also called MCSP; NG2
Assay: reactivity of single scFv clones with CSPG4+ SK-MEL-28 melanoma cells and CSPG4- LG2 B lymphoid cells

T1 sequence (Q6UVK1 30-2322): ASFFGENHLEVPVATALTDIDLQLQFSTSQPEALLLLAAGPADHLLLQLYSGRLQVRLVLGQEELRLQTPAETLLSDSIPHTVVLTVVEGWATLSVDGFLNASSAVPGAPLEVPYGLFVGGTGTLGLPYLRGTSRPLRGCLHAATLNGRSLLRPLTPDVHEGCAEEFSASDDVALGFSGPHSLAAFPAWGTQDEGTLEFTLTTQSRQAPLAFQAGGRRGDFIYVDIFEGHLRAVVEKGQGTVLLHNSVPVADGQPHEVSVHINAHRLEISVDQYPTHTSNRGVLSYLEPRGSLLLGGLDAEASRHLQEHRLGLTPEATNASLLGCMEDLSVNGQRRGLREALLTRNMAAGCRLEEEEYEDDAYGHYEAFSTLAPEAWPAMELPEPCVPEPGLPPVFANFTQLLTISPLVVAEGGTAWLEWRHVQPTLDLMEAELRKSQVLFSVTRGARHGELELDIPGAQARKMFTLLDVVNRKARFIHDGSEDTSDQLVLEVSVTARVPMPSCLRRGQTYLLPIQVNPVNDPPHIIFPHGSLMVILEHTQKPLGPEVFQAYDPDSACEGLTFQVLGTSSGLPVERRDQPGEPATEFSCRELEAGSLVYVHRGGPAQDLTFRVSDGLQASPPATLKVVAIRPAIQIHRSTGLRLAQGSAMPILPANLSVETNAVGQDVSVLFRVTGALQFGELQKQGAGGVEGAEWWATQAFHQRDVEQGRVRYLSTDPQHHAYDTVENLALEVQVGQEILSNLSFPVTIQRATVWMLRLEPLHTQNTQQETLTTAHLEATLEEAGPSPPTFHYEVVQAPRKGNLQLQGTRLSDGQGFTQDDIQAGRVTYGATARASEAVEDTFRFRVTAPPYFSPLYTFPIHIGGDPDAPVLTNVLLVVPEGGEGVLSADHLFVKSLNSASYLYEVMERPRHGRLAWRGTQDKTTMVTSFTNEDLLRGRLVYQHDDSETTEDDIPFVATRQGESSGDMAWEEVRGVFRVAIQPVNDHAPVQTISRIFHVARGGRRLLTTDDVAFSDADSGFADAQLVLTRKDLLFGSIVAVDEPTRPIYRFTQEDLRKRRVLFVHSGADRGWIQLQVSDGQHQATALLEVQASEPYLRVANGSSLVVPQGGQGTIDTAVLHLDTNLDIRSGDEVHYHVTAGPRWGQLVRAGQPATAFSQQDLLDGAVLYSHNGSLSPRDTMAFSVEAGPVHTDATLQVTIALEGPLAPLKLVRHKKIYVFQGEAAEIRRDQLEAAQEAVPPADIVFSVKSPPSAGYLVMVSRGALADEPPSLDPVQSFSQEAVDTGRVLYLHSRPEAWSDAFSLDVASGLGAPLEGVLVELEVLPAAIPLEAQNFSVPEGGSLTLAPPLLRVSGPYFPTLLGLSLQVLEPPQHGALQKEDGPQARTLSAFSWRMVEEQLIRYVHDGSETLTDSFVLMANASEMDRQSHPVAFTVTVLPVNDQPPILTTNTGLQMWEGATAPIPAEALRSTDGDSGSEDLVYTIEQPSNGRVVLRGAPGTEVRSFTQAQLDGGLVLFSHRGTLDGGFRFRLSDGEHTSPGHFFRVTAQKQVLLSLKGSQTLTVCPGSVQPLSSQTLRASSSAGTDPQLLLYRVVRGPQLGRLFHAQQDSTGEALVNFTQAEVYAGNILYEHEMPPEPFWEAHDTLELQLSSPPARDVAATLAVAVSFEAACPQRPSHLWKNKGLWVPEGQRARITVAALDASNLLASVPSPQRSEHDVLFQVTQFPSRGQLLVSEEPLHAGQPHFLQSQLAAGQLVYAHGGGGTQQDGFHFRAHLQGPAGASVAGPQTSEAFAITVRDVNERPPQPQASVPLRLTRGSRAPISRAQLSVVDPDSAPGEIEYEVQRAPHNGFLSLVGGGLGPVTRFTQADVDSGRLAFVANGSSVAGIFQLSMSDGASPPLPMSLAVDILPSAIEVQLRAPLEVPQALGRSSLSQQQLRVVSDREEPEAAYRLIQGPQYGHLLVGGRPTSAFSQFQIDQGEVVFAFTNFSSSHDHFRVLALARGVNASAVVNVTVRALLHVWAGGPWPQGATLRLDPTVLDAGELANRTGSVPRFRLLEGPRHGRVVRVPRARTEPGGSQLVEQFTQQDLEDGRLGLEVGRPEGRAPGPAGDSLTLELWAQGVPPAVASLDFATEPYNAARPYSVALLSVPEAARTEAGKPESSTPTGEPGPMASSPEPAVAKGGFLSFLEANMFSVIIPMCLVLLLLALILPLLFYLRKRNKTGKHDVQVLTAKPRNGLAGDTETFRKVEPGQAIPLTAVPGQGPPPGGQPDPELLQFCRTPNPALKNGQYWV

B1: scFv SK5 (scFv)
scFv: MAEVQLVESGGGVVRPGGSLRLSCAASGFTFDDYGMSWVRQAPGKGLEWVSGINWNGGSTGYADSVKGRFTISRDNAKNSLYLQMNSLRAEDTAVYYCARGVLSRYFDYWGQGTLVTVSSGGGGSGGGGSGGGGSEIELTQSPATLSLSPGERATLSCRASQSVSSYLAWYQQKPGQAPRLLIYDASNRATGIPARFSGSGSGTDFTLTISSLEPEDFAVYYCQQRSNWPPAFGGGTKVEIKRAA
notes: Fully human scFv from a semi-synthetic phage display library; Tested as soluble scFv in supernatant with a c-Myc tag, detected through mAb 9E10; also called CSPG4-specific human scFv SK5
- binding result: binds
